The data set can be described thus: protein stability index of a GFP-peptide fusion (yeast GPS) (PSI 1-4); higher = more stable; sorted into four equal gates, so the index is relative within each strain. The essentials:
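The protein stability index of a peptide was calculated by multiplying its read frequency in each gate by that gate's number and adding the products. The peptides were tiled 17-residue stretches of yeast proteins, fused downstream of GFP on a Cherry-expressing plasmid and carried in yeast as a pooled library. Mid-log cultures in leucine-free medium were sorted into four equal gates by GFP/Cherry ratio, and each gate's plasmids were PCR-amplified and Illumina-sequenced.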

± gives the uncertainty stated by the source.

RRSTPFSKIAEYYRIQK [ESC2]: the protein stability index reads like this: (doa10∆) 2.77 ± 0.071; (pdr5∆) 2.9 ± 0.094; (san1∆) 2.72 ± 0.078; (ubr1∆) 2.94 ± 0.11.
With VNTMGTGGQTIDNGTGR [MED6], the protein stability index turned out to be 3.27 ± 0.14 (doa10∆), 3.06 ± 0.24 (pdr5∆), 3.19 ± 0.077 (san1∆) and 3.19 ± 0.073 (ubr1∆).
For STANPNIKLLNNRMGSY [POP1], the protein stability index by setting is: (doa10∆) 3.01 ± 0.086; (pdr5∆) 3.16 ± 0.083; (san1∆) 2.56 ± 0.088; (ubr1∆) 3.04 ± 0.052.
For IERYPLKVTKKHGAKKV [RPL27A], the protein stability index is 3.37 ± 0.092 (doa10∆), 3.6 ± 0.14 (pdr5∆), 3.54 ± 0.087 (san1∆) and 3.23 ± 0.1 (ubr1∆).
Turning to NRVGLTLDNIDDINKAK [ARP9], the protein stability index is, setting by setting: (doa10∆) 3.15 ± 0.056; (pdr5∆) 2.93 ± 0.051; (san1∆) 3.22 ± 0.045; (ubr1∆) 2.43 ± 0.034.
On to YQKEYETAERNIIQAKR [RPL7A], for which the protein stability index runs as follows: (doa10∆) 2.81 ± 0.25; (pdr5∆) 2.75 ± 0.14; (san1∆) 1.94 ± 0.16.
With TEQQIEIPEGVTVSIKS [RPL9B], the protein stability index is, setting by setting: (doa10∆) 2.24 ± 0.062; (pdr5∆) 2.73 ± 0.071; (san1∆) 2.39 ± 0.067; (ubr1∆) 2.47 ± 0.059.
On to PVQSKFGRKKRKGGPAT [RPT2], for which the protein stability index (doa10∆) is 3.47 ± 0.23, the protein stability index (pdr5∆) worked out at 3.11 ± 0.14, the protein stability index (san1∆) was found to be 2.99 ± 0.095 and the protein stability index (ubr1∆) amounted to 3.22 ± 0.16.
The like results for AKIDVMLTIARLGFFYN [RPN7] were, in that order, 2.44 ± 0.15, 2.89 ± 0.14, 3.42 ± 0.14 and 3.14 ± 0.094.
The matching figures for YNLLVKISLHKREYLEV [RPN5]: 1.5 ± 0.1, 1.21 ± 0.12, 1.34 ± 0.17 and 1.43 ± 0.092.
The like results for KNYDATDKPFSSTQDVI [CSI1] were, in that order, 2.37 ± 0.13, 2.96 ± 0.1, 2.85 ± 0.088 and 3.06 ± 0.086.
In turn, AISQSLRDESLTVDNLS [PRE5] returned a protein stability index (doa10∆) of 2.96 ± 0.093, a protein stability index (pdr5∆) of 3.15 ± 0.089, a protein stability index (san1∆) of 3.33 ± 0.078 and a protein stability index (ubr1∆) of 3.32 ± 0.06.
Sequence KMLNEFVKKTSEEIDSL [SMC2] returned a protein stability index (doa10∆) of 2.61 ± 0.099, a protein stability index (pdr5∆) of 3.19 ± 0.15 and a protein stability index (ubr1∆) of 3.09 ± 0.12.
VLLVEKYGAEYDLVDNK [NAS6]: the protein stability index was 1.9 ± 0.22 (doa10∆), 3 ± 0.22 (san1∆) and 3 ± 0.19 (ubr1∆).
For the sequence TGATSLFGSSNNNNNNN [YGL172W/NUP49], the protein stability index was 2.39 ± 0.046 (doa10∆), 2.07 ± 0.038 (pdr5∆), 2.34 ± 0.056 (san1∆) and 2.42 ± 0.043 (ubr1∆).
In the case of SKLDYIFKDKEKLVSDL [SMC1], the protein stability index is 2.89 ± 0.15 (doa10∆), 3.24 ± 0.085 (pdr5∆), 3.27 ± 0.2 (san1∆) and 3.37 ± 0.083 (ubr1∆).
For the sequence LSRYVKWPEYVRVQRQK [RPL8A], the protein stability index amounted to 2.67 ± 0.13 (pdr5∆) and 3.02 ± 0.22 (ubr1∆).
In turn, TRKAVRPQKLRASLVPG [RPL6B] showed a protein stability index (doa10∆) of 2.26 ± 0.11, a protein stability index (pdr5∆) of 1.67 ± 0.11, a protein stability index (san1∆) of 2.9 ± 0.14 and a protein stability index (ubr1∆) of 1.83 ± 0.046.
NLRKSRGMLGLLEPPAK [RPO31]: the protein stability index turned out to be 1.61 ± 0.22 (doa10∆) and 1.18 ± 0.21 (pdr5∆).
With MAESHRLYVKGKHLSYQ [RPL33A], the protein stability index was 2.71 ± 0.077 (doa10∆), 2.84 ± 0.068 (pdr5∆), 2.52 ± 0.073 (san1∆) and 2.62 ± 0.058 (ubr1∆).
As to IKGPEFKFSGTVSSDVF [YLR335W/NUP2], under “pdr5∆”, the protein stability index worked out at 3.17 ± 0.18.
On to FGRTLASVTKEILGTAQ [RPL12A], for which the protein stability index came out at 1.46 ± 0.1 (doa10∆), 1.53 ± 0.047 (pdr5∆), 1.38 ± 0.084 (san1∆) and 1.62 ± 0.078 (ubr1∆).
As to SFYDAIFFNIPLVAHLG [YJL039C/NUP192], the protein stability index (doa10∆) turned out to be 1.73 ± 0.037, the protein stability index (pdr5∆) stood at 1.23 ± 0.042, the protein stability index (san1∆) was determined as 2.02 ± 0.027 and the protein stability index (ubr1∆) is 1.22 ± 0.034.
TIRTRKVISNPLLARKQ [RPS24A] displayed a protein stability index (doa10∆) of 1.74 ± 0.1, a protein stability index (pdr5∆) of 1.88 ± 0.066, a protein stability index (san1∆) of 2.35 ± 0.13 and a protein stability index (ubr1∆) of 1.87 ± 0.089.
The like results for PSGAKKVISSDARGVIG [RPL2A] were, in that order, 2.88 ± 0.072, 3.13 ± 0.066, 2.9 ± 0.076 and 3.04 ± 0.077.
In the case of FLGYKAGMTTIVRDLDR [RPL3], the protein stability index worked out at 2.48 ± 0.12 (doa10∆), 3.17 ± 0.18 (pdr5∆), 2.93 ± 0.078 (san1∆) and 3.14 ± 0.1 (ubr1∆).

Values taken from the supplement of paper PMC9732359.
